± gives the uncertainty stated by the source.
B1: Zinc finger protein ZIC 2, residues 250 to 295; numbered along this chain, O95409 (parent)
chain: QCIKQELICKWIDPEQLSNPKKSCNKTFSTMHELVTHVSVEHVGGP
B2: Nuclear receptor subfamily 1 group D member 2, residues 103 to 171; numbered along this chain, Q14995 (parent)
chain: CKVCGDVASGFHYGVHACEGCKGFFRRSIQQNIQYKKCLKNENCSIMRMNRNRCQQCRFKKCLSVGMSR

Variants of: B1
Test: abundance fitness (aPCA) (normalised: wild type 0, dead -1); higher = more abundant; growth selection in yeast, the domain comes from the species named
Details: Homo sapiens

Row | Variant | abundance fitness
1 | G44P | -0.217 ± 0.1
2 | G44Q | -0.267 ± 0.13
3 | G44R | 0.057 ± 0.086
4 | G44T | -0.045 ± 0.091
5 | G44V | -0.273 ± 0.088
6 | G44W | -0.082 ± 0.098
7 | G44Y | -0.357 ± 0.13
8 | G45A | 0.035 ± 0.091
9 | G45C | -0.017 ± 0.1
10 | G45D | 0.034 ± 0.088
11 | G45E | -0.032 ± 0.1
12 | G45F | -0.202 ± 0.1
13 | G45H | -0.443 ± 0.13
14 | G45I | 0.133 ± 0.12
15 | G45K | -0.134 ± 0.12
16 | G45L | -0.149 ± 0.092
17 | G45M | -0.382 ± 0.12
18 | G45P | -0.195 ± 0.16

Row | Variant | abundance fitness
19 | G45Q | -0.217 ± 0.13
20 | G45R | -0.114 ± 0.087
21 | G45S | -0.244 ± 0.089
22 | G45T | -0.093 ± 0.11
23 | G45V | -0.242 ± 0.09
24 | G45Y | -0.648 ± 0.13
25 | P46A | -0.578 ± 0.24
26 | P46C | 0.1 ± 0.29
27 | P46D | 0.004 ± 0.26
28 | P46F | -0.736 ± 0.36
29 | P46H | 0.193 ± 0.26
30 | P46I | -0.976 ± 0.43
31 | P46K | 0.593 ± 0.26
32 | P46L | -0.556 ± 0.28
33 | P46R | -0.231 ± 0.17
34 | P46T | -0.673 ± 0.21
35 | P46W | -0.709 ± 0.43

Variants of: B2
Test: as above
Details: Homo sapiens

Row | Variant | abundance fitness
36 | C54P | -0.606 ± 0.21
37 | S45W | -0.54 ± 0.18
38 | V15M | -0.753 ± 0.15
39 | K60A | -0.009 ± 0.16
40 | Q56I | -0.134 ± 0.22
41 | V3I | -0.293 ± 0.27
42 | H12D | -0.44 ± 0.13
43 | G14W | -0.878 ± 0.22
44 | F59M | -0.326 ± 0.19
45 | Y13P | -0.89 ± 0.16
46 | Q31C | -0.551 ± 0.15
47 | N52I | -0.325 ± 0.29
48 | G5D | -0.645 ± 0.18
49 | N32V | -0.672 ± 0.084
50 | I29C | -0.388 ± 0.17
51 | K61F | -0.608 ± 0.35
52 | R69E | 0.008 ± 0.16
53 | I46E | -0.437 ± 0.24
54 | K37E | -0.04 ± 0.1
55 | E42D | -0.025 ± 0.1
56 | I33H | -0.493 ± 0.14
57 | G14F | -0.558 ± 0.41

Row | Variant | abundance fitness
58 | V7F | -0.061 ± 0.17
59 | I46P | 0.068 ± 0.15
60 | K2Y | -0.7 ± 0.24
61 | N41L | -0.348 ± 0.12
62 | L39Y | -0.02 ± 0.16
63 | K61Y | -0.547 ± 0.44
64 | Q31I | -0.635 ± 0.29
65 | Q31N | -0.475 ± 0.37
66 | N32I | -0.329 ± 0.12
67 | V3G | -0.738 ± 0.22
68 | N50G | -0.383 ± 0.11
69 | R26Q | 0.214 ± 0.15
70 | R51L | -0.059 ± 0.11
71 | I29R | -0.601 ± 0.11
72 | M67D | 0.029 ± 0.21
73 | R58F | 0.109 ± 0.2
74 | C62T | -0.948 ± 0.27
75 | V15E | -0.679 ± 0.17
76 | Y13E | -0.099 ± 0.093
77 | N32Q | 0.144 ± 0.12
78 | N32A | -0.343 ± 0.077
79 | R51I | -0.417 ± 0.39

Row | Variant | abundance fitness
80 | F24K | -1.04 ± 0.46
81 | N43W | -0.79 ± 0.31
82 | A17S | -0.346 ± 0.1
83 | H12M | -0.936 ± 0.28
84 | K40V | -0.273 ± 0.057
85 | Q55E | 0.251 ± 0.1
86 | S28V | -0.419 ± 0.21
87 | N43C | -0.083 ± 0.093
88 | K61T | -0.652 ± 0.22
89 | C62V | -0.665 ± 0.23
90 | R53L | 0.228 ± 0.061
91 | V65C | -0.571 ± 0.43
92 | R69F | 0.483 ± 0.36
93 | R51K | 0.044 ± 0.18
94 | K2G | -0.623 ± 0.12
95 | V15Y | -0.492 ± 0.38
96 | S28G | -0.748 ± 0.26
97 | R53V | 0.186 ± 0.063
98 | F25S | -0.609 ± 0.16
99 | R51S | -0.118 ± 0.12
100 | A8D | -0.724 ± 0.42
101 | C4W | -0.83 ± 0.3

Row | Variant | abundance fitness
102 | K2N | -0.011 ± 0.14
103 | F59A | -0.601 ± 0.22
104 | H12R | -0.732 ± 0.13
105 | K36A | -0.172 ± 0.12
106 | I33V | -0.213 ± 0.048
107 | M67R | -0.241 ± 0.09
108 | L63I | 0.268 ± 0.22
109 | A8K | -0.42 ± 0.13
110 | V65P | -0.814 ± 0.17
111 | F24A | -1.09 ± 0.34
112 | C54Q | -0.922 ± 0.21
113 | V7A | -0.153 ± 0.1
114 | A17T | -0.392 ± 0.14
115 | L63Q | -0.329 ± 0.21
116 | H16L | 0.098 ± 0.056
117 | F59D | -0.8 ± 0.4
118 | C18R | -0.751 ± 0.14
119 | G14L | -0.898 ± 0.18
120 | F24T | -0.422 ± 0.21
121 | H12E | -0.587 ± 0.2
122 | F25N | -0.647 ± 0.47
123 | G23V | -0.041 ± 0.47

Row | Variant | abundance fitness
124 | Q56E | 0.1 ± 0.12
125 | R69P | 0.28 ± 0.12
126 | K40A | 0.106 ± 0.056
127 | D6Y | -0.445 ± 0.35
128 | R27F | -0.581 ± 0.33
129 | H12P | -0.835 ± 0.22
130 | I33Y | -0.181 ± 0.12
131 | Q31A | -0.51 ± 0.099
132 | R48G | 0.089 ± 0.079
133 | F59I | -0.355 ± 0.39
134 | I29A | -0.723 ± 0.14
135 | S64T | -0.002 ± 0.094
136 | G14M | -0.759 ± 0.2
137 | C54T | -0.717 ± 0.12
138 | L39W | -0.559 ± 0.18
139 | V65M | -0.012 ± 0.14
140 | S45C | -0.03 ± 0.16
141 | R48A | 0.193 ± 0.09
142 | R53C | 0.3 ± 0.082
143 | G5Y | -1.11 ± 0.31
144 | K36M | -0.267 ± 0.24
145 | R27M | 0.073 ± 0.19

Row | Variant | abundance fitness
146 | C62N | -0.812 ± 0.45
147 | K36E | 0.219 ± 0.35
148 | E19G | -0.63 ± 0.19
149 | F59R | -0.477 ± 0.17
150 | N52L | -0.14 ± 0.18
151 | K2A | 0.016 ± 0.092
152 | R48P | 0.346 ± 0.082
153 | G66F | -0.562 ± 0.47
154 | R58Q | -0.046 ± 0.11
155 | V15S | -0.954 ± 0.18
156 | C54I | -0.903 ± 0.28
157 | N41E | -0.063 ± 0.089
158 | R53K | 0.028 ± 0.097
159 | V3R | -1.25 ± 0.45
160 | H12T | -0.546 ± 0.15
161 | C57G | -0.855 ± 0.23
162 | G23D | 0.195 ± 0.34
163 | R26A | 0.133 ± 0.058
164 | I29N | -0.058 ± 0.28
165 | L39F | -0.57 ± 0.24
166 | F24P | -0.52 ± 0.47
167 | D6M | -0.345 ± 0.17

— the Human Domainome abundance scans (Beltran et al. 2025)
